This is an account of results in patent US20150098945A1 (Daiichi Sankyo, published 2015).

Residue numbers refer to the chain shown, from its start.

Assay [1] deals with T1, N-terminal FLAG-tagged cynomolgus monkey ROBO4, cynoROBO4-1 (pCI-FLAG-cynoROBO4-1) (cynomolgus monkey, UniProt Q8WZ75 28-1007 (human entry)).
T1 chain: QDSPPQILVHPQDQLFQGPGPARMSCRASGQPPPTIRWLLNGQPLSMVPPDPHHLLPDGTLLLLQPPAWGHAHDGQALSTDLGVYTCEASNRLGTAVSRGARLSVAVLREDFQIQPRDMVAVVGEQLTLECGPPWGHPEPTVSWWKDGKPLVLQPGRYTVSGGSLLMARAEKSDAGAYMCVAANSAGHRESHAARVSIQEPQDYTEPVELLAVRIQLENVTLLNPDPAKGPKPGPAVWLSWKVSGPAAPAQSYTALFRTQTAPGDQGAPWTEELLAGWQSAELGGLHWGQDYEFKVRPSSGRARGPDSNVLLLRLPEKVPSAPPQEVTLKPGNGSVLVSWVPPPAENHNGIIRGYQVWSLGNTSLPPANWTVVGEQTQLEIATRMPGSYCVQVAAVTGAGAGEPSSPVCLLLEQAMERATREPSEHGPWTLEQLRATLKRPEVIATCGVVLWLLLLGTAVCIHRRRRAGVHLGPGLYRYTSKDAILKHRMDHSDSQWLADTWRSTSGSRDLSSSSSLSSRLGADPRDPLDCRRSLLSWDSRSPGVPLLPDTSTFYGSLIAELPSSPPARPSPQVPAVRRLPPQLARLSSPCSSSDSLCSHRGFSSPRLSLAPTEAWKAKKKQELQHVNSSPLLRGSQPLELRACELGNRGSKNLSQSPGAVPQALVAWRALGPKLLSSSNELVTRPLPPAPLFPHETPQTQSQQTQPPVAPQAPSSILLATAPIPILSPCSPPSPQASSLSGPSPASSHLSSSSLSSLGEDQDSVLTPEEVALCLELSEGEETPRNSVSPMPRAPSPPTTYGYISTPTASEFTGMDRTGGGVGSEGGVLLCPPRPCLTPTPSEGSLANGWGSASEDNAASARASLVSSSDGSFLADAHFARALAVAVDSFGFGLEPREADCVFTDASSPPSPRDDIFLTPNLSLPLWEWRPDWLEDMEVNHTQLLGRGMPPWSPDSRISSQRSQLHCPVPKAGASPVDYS
Put plainly: flow cytometry (FC500), HEK293 cells transfected with pCI-FLAG-cynoROBO4-1, antibody at 10 µg/mL, FITC goat anti-human IgG Fc; control histogram IgG (human IgG). In general terms: A flow cytometer gives signals particle by particle.

In assay [2] the target is T2, mouse ROBO4 (pCI-mROBO4-transfected HEK293 cells) (mouse, UniProt Q8C310 28-1012).
T2 sequence: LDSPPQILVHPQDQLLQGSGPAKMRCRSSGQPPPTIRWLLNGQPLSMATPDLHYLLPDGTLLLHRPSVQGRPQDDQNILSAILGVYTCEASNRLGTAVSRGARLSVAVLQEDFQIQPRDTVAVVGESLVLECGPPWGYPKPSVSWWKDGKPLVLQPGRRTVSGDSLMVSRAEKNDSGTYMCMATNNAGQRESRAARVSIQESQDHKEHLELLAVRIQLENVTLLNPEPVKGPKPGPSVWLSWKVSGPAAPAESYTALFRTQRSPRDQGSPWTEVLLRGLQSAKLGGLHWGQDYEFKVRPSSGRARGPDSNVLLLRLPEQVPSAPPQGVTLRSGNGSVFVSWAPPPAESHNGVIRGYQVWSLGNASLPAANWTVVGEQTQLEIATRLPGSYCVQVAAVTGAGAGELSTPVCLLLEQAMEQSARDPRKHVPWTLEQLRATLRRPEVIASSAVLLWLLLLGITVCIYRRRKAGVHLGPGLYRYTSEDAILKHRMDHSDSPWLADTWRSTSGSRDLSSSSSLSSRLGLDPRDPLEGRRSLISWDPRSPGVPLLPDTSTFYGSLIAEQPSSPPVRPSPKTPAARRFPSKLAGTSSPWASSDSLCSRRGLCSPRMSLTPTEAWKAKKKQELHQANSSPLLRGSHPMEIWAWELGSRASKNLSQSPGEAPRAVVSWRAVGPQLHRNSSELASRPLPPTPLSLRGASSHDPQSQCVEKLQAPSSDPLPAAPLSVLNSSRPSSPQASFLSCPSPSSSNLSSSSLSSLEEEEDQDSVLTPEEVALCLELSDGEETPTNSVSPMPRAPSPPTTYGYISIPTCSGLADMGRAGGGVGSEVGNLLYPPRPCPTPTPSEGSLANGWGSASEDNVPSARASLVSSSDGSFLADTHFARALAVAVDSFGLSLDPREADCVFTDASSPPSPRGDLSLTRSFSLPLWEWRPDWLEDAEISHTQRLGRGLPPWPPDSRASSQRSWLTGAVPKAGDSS
In words: flow cytometry (FC500), HEK293 cells transfected with pCI-mROBO4, FITC goat anti-human IgG Fc; control histogram IgG (human IgG).

B1: humanized MAb1 antibody H-2140 (antibody, human IgG2, kappa, V domains shown)
VH: EVQLVESGGGLVQPGGSLRLSCAASGFTFSTYAMSWVRQAPGKRLEWVATISQGGTYTYYPDSVKGRFTISRDNAKNTLYLQMNSLRAEDTAVYYCARLIYYDYLDYWGQGTLVTVSS
VL: DIVMTQSPLSLPVTLGEPASISCRSSQSLENSNGNTYLNWYLQKPGQSPQLLIYRVSNRFSGVPDRFSGSGSGTDFTLKISRVEAEDVGVYYCLQVTHVPWTFGPGTKVDIKR
notes: Human IgG2 / kappa constant regions; also called hMAb1-H4-type heavy chain + hMAb1-L1-type light chain
With B1, in assay [1], the binding result is reported as “binds”.

B2: humanized MAb1 antibody H-2143 (antibody, human IgG2, kappa, V domains shown)
VH: B1 VH
VL: B1 VL with S32E, G34K, T36L
notes: Human IgG2 / kappa constant regions; also called hMAb1-H4-type heavy chain + hMAb1-L2-type light chain
For B2, in assay [2], the binding result is reported as “no binding (tested: 10 µg/mL)”.
